Experiments:
[1] = target: T1, recombinant monomeric human B7-H1 FlagHis10 extracellular domain (human, UniProt Q9NZQ7 19-238); test: SPR (BIAcore T100), IgG captured via protein G, monomeric B7-H1 ECD as analyte, 25 °C, 1:1 model
T1 construct: extracellular domain; also called HIS FLAG tagged human B7-H1; HIS FLAG tagged B7-H1; not shown: FlagHis10 tag
Procedure: (§1) The binding affinity and kinetic parameters of anti-B7-H1 antibodies in the IgG1-TM format to monomeric human and cynomologus B7-H1 were determined by surface plasmon resonance using a BIAcore T100 instrument (BIAcore, Uppsala, Sweden). In brief, experiments were performed at 25° C. using HBS-EP buffer (10 mM HEPES, 150 mM NaCl, 3 mM EDTA, 0.05% v/v surfactant P20) as running buffer. IgGs were affinity captured on the surface of a CM5 sensor chip (BIAcore) via protein G, which was amine coupled onto the CM5 surface to achieve the density of ˜500 Response Units (RU), according to the manufacturer's instructions (BIAapplications Handbook, BIAcore). Recombinant monomeric human or cynomologus B7-H1 FlagHis₁₀ extracellular domains (ECDs) were used as analytes. […] All measurements were baseline corrected by subtracting the sensorgram obtained with the control (activated-deactivated) flow cell, as well as double referenced with blank (zero analyte concentration) injections. Data were analyzed using the T-100 BIAevaluation software package and fitted to a simple 1:1 Langmuir binding model with local Rₘₐₓ and bulk refractive index set to 0. Data were calculated from at least two independent experiments. Mass transport effects were limited by keeping the level of affinity-captured IgGs below 250 RU.

[2] = target: T2, B7H1_F19A (human, UniProt Q9NZQ7 19-238); test: HTRF competition: untagged B7-H1 sample against HIS FLAG tagged human B7-H1 for labelled antibody
T2 construct: range 19-238; also called human B7-H1 extracellular domain mutant F19A
T2 sequence (Q9NZQ7 19-238 F19A limits assumed): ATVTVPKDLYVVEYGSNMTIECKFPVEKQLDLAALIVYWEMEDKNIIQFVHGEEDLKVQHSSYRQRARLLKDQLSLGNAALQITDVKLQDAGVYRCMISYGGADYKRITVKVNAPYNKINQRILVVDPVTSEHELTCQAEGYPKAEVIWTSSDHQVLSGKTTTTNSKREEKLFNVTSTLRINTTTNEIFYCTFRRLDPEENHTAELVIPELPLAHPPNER
Procedure: (§2) The HTRF® competition assays measured the binding of anti-B7-H1 antibody to HIS FLAG tagged B7-H1. Titration of non tagged B7-H1 samples, prepared as described above, will compete with HIS FLAG tagged B7-H1 for binding to anti-B7-H1 antibody, leading to a reduction in assay signal. […] 10 μl of B7-H1 sample was added to a 384 well low volume assay plate (Corning 3673). […] Assay plates were incubated for 4 hours at room temperature prior to reading time resolved fluorescence at 620 nm and 665 nm emission wavelengths using an EnVision plate reader (Perkin Elmer).

[3] = target: T3, B7H1_F19G (human, UniProt Q9NZQ7 19-238); test: as above
T3 construct: range 19-238; also called human B7-H1 extracellular domain mutant F19G
T3 sequence (Q9NZQ7 19-238 F19G limits assumed): as the sequence (Q9NZQ7 19-238 F19A limits assumed) above, with A1G counted along it
Procedure: as §2

[4] = target: T4, B7H1_F19S (human, UniProt Q9NZQ7 19-238); test: as above
T4 construct: range 19-238; also called human B7-H1 extracellular domain mutant F19S
T4 sequence (Q9NZQ7 19-238 F19S limits assumed): as the sequence (Q9NZQ7 19-238 F19A limits assumed) above, with A1S counted along it
Procedure: as §2

[5] = target: T5, B7H1_T20A (human, UniProt Q9NZQ7 19-238); test: as above
T5 construct: range 19-238; also called human B7-H1 extracellular domain mutant T20A
T5 sequence (Q9NZQ7 19-238 T20A limits assumed): as the sequence (Q9NZQ7 19-238 F19A limits assumed) above, with A1F, T2A counted along it
Procedure: as §2

[6] = target: T6, B7H1_T20V (human, UniProt Q9NZQ7 19-238); test: as above
T6 construct: range 19-238; also called human B7-H1 extracellular domain mutant T20V
T6 sequence (Q9NZQ7 19-238 T20V limits assumed): as the sequence (Q9NZQ7 19-238 F19A limits assumed) above, with A1F, T2V counted along it
Procedure: as §2

[7] = target: T7, B7H1_T20D (human, UniProt Q9NZQ7 19-238); test: as above
T7 construct: range 19-238; also called human B7-H1 extracellular domain mutant T20D
T7 sequence (Q9NZQ7 19-238 T20D limits assumed): as the sequence (Q9NZQ7 19-238 F19A limits assumed) above, with A1F, T2D counted along it
Procedure: as §2

[8] = target: T8, B7H1_R113Y (human, UniProt Q9NZQ7 19-238); test: as above
T8 construct: range 19-238; also called human B7-H1 extracellular domain mutant R113Y
T8 sequence (Q9NZQ7 19-238 R113Y limits assumed): as the sequence (Q9NZQ7 19-238 F19A limits assumed) above, with A1F, R95Y counted along it
Procedure: as §2

[9] = target: T9, B7H1_R113L (human, UniProt Q9NZQ7 19-238); test: as above
T9 construct: range 19-238; also called human B7-H1 extracellular domain mutant R113L
T9 sequence (Q9NZQ7 19-238 R113L limits assumed): as the sequence (Q9NZQ7 19-238 F19A limits assumed) above, with A1F, R95L counted along it
Procedure: as §2

[10] = target: T10, B7H1_D122E (human, UniProt Q9NZQ7 19-238); test: as above
T10 construct: range 19-238; also called B7H1 D122E mutant
T10 sequence (Q9NZQ7 19-238 D122E limits assumed): as the sequence (Q9NZQ7 19-238 F19A limits assumed) above, with A1F, D104E counted along it
Procedure: as §2

[11] = target: T11, B7H1_D122N (human, UniProt Q9NZQ7 19-238); test: as above
T11 construct: range 19-238; also called human B7-H1 extracellular domain mutant D122N
T11 sequence (Q9NZQ7 19-238 D122N limits assumed): as the sequence (Q9NZQ7 19-238 F19A limits assumed) above, with A1F, D104N counted along it
Procedure: as §2

[12] = target: T12, recombinant monomeric cynomologus B7-H1 FlagHis10 extracellular domain (cynomologus); test: SPR (BIAcore T100), IgG captured via protein G, monomeric cynomologus B7-H1 ECD as analyte, 25 °C, 1:1 model
T12 construct: extracellular domain; also called CYNO B7H1
Procedure: as §1

T1 sequence (Q9NZQ7 19-238): as the sequence (Q9NZQ7 19-238 F19A limits assumed) above, with A1F counted along it

Kd [1]: 1 nM
koff [1]: 0.0012 s⁻¹
kon [1]: 1.24e+06 M⁻¹ s⁻¹
binding result [2]: no binding
binding result [3]: no binding
binding result [4]: no binding
binding result [5]: no binding
binding result [6]: no binding
binding result [7]: no binding
binding result [8]: no binding
binding result [9]: no binding
binding result [10]: no binding
binding result [11]: no binding
Kd [12]: 0.835 nM
koff [12]: 0.0011 s⁻¹
kon [12]: 1.31e+06 M⁻¹ s⁻¹
B1: 2.7A4OPT (antibody, V domains shown)
VH: EVQLVESGGGLVKPGGSLRLSCAASGFTFSTYSMNWVRQAPGKGLEWVSSISSSGDYIYYADSVKGRFTISRDNAKNSLYLQMNSLRAEDTAVYYCARDLVTSMVAFDYWGQGTLVTVSS
VL: SYELTQPPSVSVSPGQTARITCSGDALPQKYVFWYQQKSGQAPVLVIYEDSKRPSGIPERFSGSSSGTMATLTISGAQVEDEADYYCYSTDRSGNHRVFGGGTKLTVL
notes: Germlined variable domains; human IgG1-TM (L234F, L235E, P331S), lambda; also called 2.7A4OPT IgG1-TM

— patent US20130034559A1 (AstraZeneca / MedImmune, published 2013)
